Data set [1] has as its system HeLa Kyoto. Briefly: solubility change mitosis vs G1/S (difference of NP-40 vs SDS log2 ratios) (log2 ratio difference); higher = more soluble in mitosis.
For data set [2], the system named is HeLa Kyoto. In words: solubility in G1/S (NP-40 vs SDS abundance) (log2 ratio); higher = more soluble. Particulars: cell cycle stage: G1/S.
Data set [3] concerns HeLa Kyoto. Briefly: thermal stability score vs G1/S (z-score of summed log2 fold changes over temperatures); higher = more thermally stable than in G1/S.
For data set [4], the system named is HeLa Kyoto. In words: melting temperature (median over replicates), in situ; higher = more thermally stable.
Setting [5] is: cell cycle stage: early G1 (4.5 h after nocodazole release).

This is an account of results in the supplement of paper PMC5998384.
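Throughout, for melting temperature (median over replicates), in situ: HeLa Kyoto cells synchronized by double thymidine or nocodazole block, proteins quantified by TMT10plex mass spectrometry, three independent biological replicates.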
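Throughout, for solubility change mitosis vs G1/S (difference of NP-40 vs SDS log2 ratios): synchronized HeLa Kyoto cells (double thymidine block for G1/S, nocodazole release for mitosis), protein amounts in NP-40 versus SDS lysates quantified by mass spectrometry, three biological replicates.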
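Throughout, for solubility in G1/S (NP-40 vs SDS abundance): HeLa Kyoto cells arrested at G1/S by double thymidine block, proteins quantified by TMT10plex mass spectrometry in mild NP-40 versus SDS extracts, three biological replicates.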
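Throughout, for thermal stability score vs G1/S (z-score of summed log2 fold changes over temperatures): synchronized HeLa Kyoto cells, proteins quantified by TMT10plex mass spectrometry, three biological replicates, mitosis taken 0.5 h after nocodazole release, G1/S directly after double thymidine block.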

In the case of “MEMTEMTGVSLKRGALVVEDNDSGVPVEETKKQKLSECSLTKGQDGLQNDFLSISEDVPRPPDTVSTGKGGKNSEAQLEDEEEEEEDGLSEECEEEESESFADMMKHGLTEADVGITKFVSSHQGFSGILKERYSDFVVHEIGKDGRISHLNDLSIPVDEEDPSEDIFTVLTAEEKQRLEELQLFKNKETSVAIEVIEDTKEKRTIIHQAIKSLFPGLETKTEDREGKKYIVAYHAAGKKALANPRKHSWPKSRGSYCHFVLYKENKDTMDAINVLSKYLRVKPNIFSYMGTKDKRAITVQEIAVLKITAQRLAHLNKCLMNFKLGNFSYQKNPLKLGELQGNHFTVVLRNITGTDDQVQQAMNSLKEIGFINYYGMQRFGTTAVPTYQVGRAILQNSWTEVMDLILKPRSGAEKGYLVKCREEWAKTKDPTAALRKLPVKRCVEGQLLRGLSKYGMKNIVSAFGIIPRNNRLMYIHSYQSYVWNNMVSKRIEDYGLKPVPGDLVLKGATATYIEEDDVNNYSIHDVVMPLPGFDVIYPKHKIQEAYREMLTADNLDIDNMRHKIRDYSLSGAYRKIIIRPQNVSWEVVAYDDPKIPLFNTDVDNLEGKTPPVFASEGKYRALKMDFSLPPSTYATMAIREVLKMDTSIKNQTQLNTTWLR [PUS7]”, the “solubility change mitosis (log2)” value with HeLa Kyoto [1] is -0.141. Further, in the data set on HeLa Kyoto [2], the “solubility in G1/S (log2)” value is 0.055. In addition, the thermal stability score was 0.213 in the data set on HeLa Kyoto [3] (setting [5]) and 0.4 with HeLa Kyoto [3] (cell cycle stage: mitosis). For the same sequence, the melting temperature in the data set on HeLa Kyoto [4] (cell cycle stage: G1/S) was determined as 52.3 °C; in the data set on HeLa Kyoto [4] (cell cycle stage: mitosis), 52.2 °C.

On to “MENEPDHENVEQSLCAKTSEEELNKSFNLEASLSKFSYIDMDKELEFKNDLIDDKEFDIPQVDTPPTLESILNETDDEDESFILEDPTLLNIDTIDSHSYDTSSVASSDSGDRTNLKRKKKLPDSFSLHGSVMRHSLLKGISAQIVSAADKVDAGLPTAIAVSSLIAVGTSHGLALIFGKDQNQALRLCLGSTSVGGQYGAISALSINNDCSRLLCGFAKGQITMWDLASGKLLRSITDAHPPGTAILHIKFTDDPTLAICNDSGGSVFELTFKRVMGVRTCESRCLFSGSKGEVCCIEPLHSKPELKDHPITQFSLLAMASLTKILVIGLKPSLKVWMTFPYGRMDPSSVPLLAWHFVAVQNYVNPMLAFCRGDVVHFLLVKRDESGAIHVTKQKHLHLYYDLINFTWINSRTVVLLDSVEKLHVIDRQTQEELETVEISEVQLVYNSSHFKSLATGGNVSQALALVGEKACYQSISSYGGQIFYLGTKSVYVMMLRSWRERVDHLLKQDCLTEALALAWSFHEGKAKAVVGLSGDASKRKAIVADRMVEILFHYADRALKKCPDQGKIQVMEQHFQDMVPVIVDYCLLLQRKDLLFSQMYDKLSENSVAKGVFLECLEPYILSDKLVGITPQVMKDLIVHFQDKKLMENVEALIVHMDITSLDIQQVVLMCWENRLYDAMIYVYNRGMNEFISPMEKLFRVIAPPLNAGKTLTDEQVVMGNKLLVYISCCLAGRAYPLGDIPEDLVPLVKNQVFEFLIRLHSAEASPEEEIYPYIRTLLHFDTREFLNVLALTFEDFKNDKQAVEYQQRIVDILLKVMVENSDFTPSQVGCLFTFLARQLAKPDNTLFVNRTLFDQVLEFLCSPDDDSRHSERQQVLLELLQAGGIVQFEESRLIRMAEKAEFYQICEFMYEREHQYDKIIDCYLRDPLREEEVFNYIHNILSIPGHSAEEKQSVWQKAMDHIEELVSLKPCKAAELVATHFSGHIETVIKKLQNQVLLFKFLRSLLDPREGIHVNQELLQISPCITEQFIELLCQFNPTQVIETLQVLECYRLEETIQITQKYQLHEVTAYLLEKKGDIHGAFLIMLERLQSKLQEVTHQGENTKEDPSLKDVEDTMVETIALCQRNSHNLNQQQREALWFPLLEAMMAPQKLSSSAIPHLHSEALKSLTMQVLNSMAAFIALPSILQRILQDPVYGKGKLGEIQGLILGMLDTFNYEQTLLETTTSLLNQDLHWSLCNLRASVTRGLNPKQDYCSICLQQYKRRQEMADEIIVFSCGHLYHSFCLQNKECTVEFEGQTRWTCYKCSSSNKVGKLSENSSEIKKGRITPSQVKMSPSYHQSKGDPTAKKGTSEPVLDPQQIQAFDQLCRLYRGSSRLALLTELSQNRSSESYRPFSGSQSAPAFNSIFQNENFQLQLIPPPVTED [VPS8]”, for which the “solubility change mitosis (log2)” value with HeLa Kyoto [1] was -0.056. Also, the “solubility in G1/S (log2)” value in the data set with HeLa Kyoto [2] was -0.292. Besides, the values for the thermal stability score with HeLa Kyoto [3] (setting [5]) and with HeLa Kyoto [3] (cell cycle stage: mitosis) were 0.78 and 1.34, respectively. The melting temperature in the data set on HeLa Kyoto [4] (cell cycle stage: G1/S) is 52.2 °C; with HeLa Kyoto [4] (cell cycle stage: mitosis) it was 50.1 °C.

As to “MENHKSNNKENITIVDISRKINQLPEAERNLLENGSVYVGLNAALCGLIANSLFRRILNVTKARIAAGLPMAGIPFLTTDLTYRCFVSFPLNTGDLDCETCTITRSGLTGLVIGGLYPVFLAIPVNGGLAARYQSALLPHKGNILSYWIRTSKPVFRKMLFPILLQTMFSAYLGSEQYKLLIKALQLSEPGKEIH [TMEM126A]”, in the data set on HeLa Kyoto [1], the “solubility change mitosis (log2)” value is -0.094. Also, in the data set with HeLa Kyoto [2], the “solubility in G1/S (log2)” value worked out at 0.245. Besides, the values for the thermal stability score with HeLa Kyoto [3] (setting [5]) and in the data set with HeLa Kyoto [3] (cell cycle stage: mitosis) were -0.173 and -0.978, respectively. The melting temperature in the data set with HeLa Kyoto [4] (cell cycle stage: G1/S) is 52.8 °C; in the data set on HeLa Kyoto [4] (cell cycle stage: mitosis), 52.4 °C.

Consider “MEPEEERIRYSQRLRGTMRRRYEDDGISDDEIEGKRTFDLEEKLHTNKYNANFVTFMEGKDFNVEYIQRGGLRDPLIFKNSDGLGIKMPDPDFTVNDVKMCVGSRRMVDVMDVNTQKGIEMTMAQWTRYYETPEEEREKLYNVISLEFSHTRLENMVQRPSTVDFIDWVDNMWPRHLKESQTESTNAILEMQYPKVQKYCLMSVRGCYTDFHVDFGGTSVWYHIHQGGKVFWLIPPTAHNLELYENWLLSGKQGDIFLGDRVSDCQRIELKQGYTFVIPSGWIHAVYTPTDTLVFGGNFLHSFNIPMQLKIYNIEDRTRVPNKFRYPFYYEMCWYVLERYVYCITNRSHLTKEFQKESLSMDLELNGLESGNGDEEAVDREPRRLSSRRSVLTSPVANGVNLDYDGLGKTCRSLPSLKKTLAGDSSSDCSRGSHNGQVWDPQCAPRKDRQVHLTHFELEGLRCLVDKLESLPLHKKCVPTGIEDEDALIADVKILLEELANSDPKLALTGVPIVQWPKRDKLKFPTRPKVRVPTIPITKPHTMKPAPRLTPVRPAAASPIVSGARRRRVRCRKCKACVQGECGVCHYCRDMKKFGGPGRMKQSCVLRQCLAPRLPHSVTCSLCGEVDQNEETQDFEKKLMECCICNEIVHPGCLQMDGEGLLNEELPNCWECPKCYQEDSSEKAQKRKMEESDEEAVQAKVLRPLRSCDEPLTPPPHSPTSMLQLIHDPVSPRGMVTRSSPGAGPSDHHSASRDERFKRRQLLRLQATERTMVREKENNPSGKKELSEVEKAKIRGSYLTVTLQRPTKELHGTSIVPKLQAITASSANLRHSPRVLVQHCPARTPQRGDEEGLGGEEEEEEEEEEEDDSAEEGGAARLNGRGSWAQDGDESWMQREVWMSVFRYLSRRELCECMRVCKTWYKWCCDKRLWTKIDLSRCKAIVPQALSGIIKRQPVSLDLSWTNISKKQLTWLVNRLPGLKDLLLAGCSWSAVSALSTSSCPLLRTLDLRWAVGIKDPQIRDLLTPPADKPGQDNRSKLRNMTDFRLAGLDITDATLRLIIRHMPLLSRLDLSHCSHLTDQSSNLLTAVGSSTRYSLTELNMAGCNKLTDQTLIYLRRIANVTLIDLRGCKQITRKACEHFISDLSINSLYCLSDEKLIQKIS [KDM2A]”, for which the “solubility change mitosis (log2)” value in the data set on HeLa Kyoto [1] amounted to 0.642. Also, the “solubility in G1/S (log2)” value with HeLa Kyoto [2] was -1.07. Also, the figures for the thermal stability score with HeLa Kyoto [3] (setting [5]) and with HeLa Kyoto [3] (cell cycle stage: mitosis) were 0.0512 and -0.325, respectively. Moreover, the melting temperature in the data set on HeLa Kyoto [4] (cell cycle stage: G1/S) stood at 52.3 °C; with HeLa Kyoto [4] (cell cycle stage: mitosis), 50.5 °C.
